Earlier results as cited in publication PMC5000552.

Target: BCL6 (Homo sapiens) (UniProt P41182)

Chain of BCOR (Q6W2J9 whole entry): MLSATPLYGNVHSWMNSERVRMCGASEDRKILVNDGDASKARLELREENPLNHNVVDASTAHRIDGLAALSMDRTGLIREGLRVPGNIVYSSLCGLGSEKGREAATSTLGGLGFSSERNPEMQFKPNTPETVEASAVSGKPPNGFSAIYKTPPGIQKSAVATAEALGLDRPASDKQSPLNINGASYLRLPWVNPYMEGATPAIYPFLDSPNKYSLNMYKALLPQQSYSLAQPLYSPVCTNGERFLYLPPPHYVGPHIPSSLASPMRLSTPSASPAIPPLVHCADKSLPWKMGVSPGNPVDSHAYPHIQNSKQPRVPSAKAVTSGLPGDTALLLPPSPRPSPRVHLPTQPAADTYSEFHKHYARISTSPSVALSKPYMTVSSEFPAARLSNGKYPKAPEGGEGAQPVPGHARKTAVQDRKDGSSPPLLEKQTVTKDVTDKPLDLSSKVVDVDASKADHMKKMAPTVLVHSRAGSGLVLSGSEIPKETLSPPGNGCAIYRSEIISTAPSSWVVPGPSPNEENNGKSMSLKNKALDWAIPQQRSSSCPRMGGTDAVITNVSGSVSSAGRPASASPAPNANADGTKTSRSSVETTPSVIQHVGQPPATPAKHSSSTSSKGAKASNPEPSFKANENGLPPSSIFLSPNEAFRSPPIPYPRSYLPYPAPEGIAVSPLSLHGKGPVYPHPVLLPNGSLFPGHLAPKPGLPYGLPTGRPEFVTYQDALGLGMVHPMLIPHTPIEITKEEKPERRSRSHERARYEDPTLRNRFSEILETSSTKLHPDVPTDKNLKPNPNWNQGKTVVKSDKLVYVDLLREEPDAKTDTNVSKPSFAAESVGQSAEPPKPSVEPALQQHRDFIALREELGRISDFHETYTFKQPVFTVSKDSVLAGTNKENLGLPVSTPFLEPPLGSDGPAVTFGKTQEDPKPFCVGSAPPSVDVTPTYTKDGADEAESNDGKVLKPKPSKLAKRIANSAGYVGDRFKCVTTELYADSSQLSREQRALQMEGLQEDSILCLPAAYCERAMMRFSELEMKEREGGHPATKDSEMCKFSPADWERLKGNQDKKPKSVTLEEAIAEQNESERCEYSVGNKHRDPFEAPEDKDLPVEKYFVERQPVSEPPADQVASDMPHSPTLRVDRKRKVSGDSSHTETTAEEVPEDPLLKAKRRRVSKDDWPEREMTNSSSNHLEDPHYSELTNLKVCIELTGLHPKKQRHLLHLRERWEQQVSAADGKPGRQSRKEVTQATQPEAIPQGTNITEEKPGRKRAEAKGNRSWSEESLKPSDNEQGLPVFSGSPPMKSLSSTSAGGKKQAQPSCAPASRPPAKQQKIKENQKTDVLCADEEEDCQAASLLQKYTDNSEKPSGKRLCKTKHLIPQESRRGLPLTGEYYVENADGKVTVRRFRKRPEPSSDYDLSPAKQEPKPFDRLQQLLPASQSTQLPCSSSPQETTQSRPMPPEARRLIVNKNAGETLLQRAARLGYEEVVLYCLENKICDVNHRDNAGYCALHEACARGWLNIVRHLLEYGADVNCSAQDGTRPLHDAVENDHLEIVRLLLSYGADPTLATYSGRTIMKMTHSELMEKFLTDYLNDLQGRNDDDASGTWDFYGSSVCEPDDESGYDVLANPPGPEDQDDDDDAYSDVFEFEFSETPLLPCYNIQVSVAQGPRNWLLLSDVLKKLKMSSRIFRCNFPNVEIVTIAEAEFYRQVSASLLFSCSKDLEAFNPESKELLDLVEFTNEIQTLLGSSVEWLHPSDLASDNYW

BCOR (from UniProt Q6W2J9)
Kd: 20 µM
